According to US20210094999A1:

These substances were tested against solubilised human insulin receptor isoform A (IR-A) (human) (UniProt P06213) (assay: competition SPA on solubilised human IR-A against [125I-TyrA14]-human insulin; affinity relative to human insulin).

| Substance | hIR binding IC50 (% of human insulin) (% of human insulin) |
| --- | --- |
| Insulin degludec (ligand) | 20 |
| Insulin glargine (ligand) | 79 |

The substances below were run against insulin receptor-A on CHO-hIR cells (human) (UniProt P06213) (assay: cell-based or functional assay).

| Substance | % maxERK/% maxAKT | Elisa hIR pY1158 max (% of human insulin) (% of human insulin) |
| --- | --- | --- |
| Insulin aspart (ligand) | 0.79 | 95 |
| Insulin degludec (ligand) | 0.97 | 87 |
| Insulin glargine (ligand) | 0.85 | 104 |
| Insulin lispro (ligand) | – | 104 |
| N{Epsilon-B26}-17-carboxyheptadecanoyl-[TyrB5,LysB26],des-(B27-B30)-Insulin (ligand; Lys B26: N-epsilon acylated with C18 diacid, no linker) | – | 2 |
| N{Epsilon-B26}-[2-[2-[2-[[2-[2-[2-[[(4S)-4-carboxy-4-(17-carboxyheptadecanoylamino)butanoyl]amino]ethoxy]ethoxy]acetyl]amino]ethoxy]ethoxy]acetyl]-[TyrB5,LysB26],des-(B27-B30)-Insulin (ligand; Lys B26: N-epsilon acylated with C18 diacid-gGlu-2xOEG) | 0.41 | 24 |
| N{Epsilon-B26}-[2-[2-[2-[[(4S)-4-carboxy-4-(17-carboxyheptadecanoylamino)butanoyl]amino]ethoxy]ethoxy]acetyl]-[TyrB5,LysB26],des-(B27-B30)-Insulin (ligand; Lys B26: N-epsilon acylated with C18 diacid-gGlu-OEG) | 0.27 | 20 |
| N{Epsilon-B26}-[(4S)-4-carboxy-4-(17-carboxyheptadecanoylamino)butanoyl]-[TyrB5,LysB26],des-(B27-B30)-Insulin (ligand; Lys B26: N-epsilon acylated with C18 diacid-gGlu) | 0.33 | 6 |
| N{Epsilon-B28}-15-carboxypentadecanoyl-[TyrB5,GlyB26,LysB28],des-(B29-B30)-Insulin (ligand; Lys B28: N-epsilon acylated with C16 diacid, no linker) | 0.27 | 10 |
| N{Epsilon-B28}-15-carboxypentadecanoyl-[TyrB5,LysB28],des-(B29-B30)-Insulin (ligand; Lys B28: N-epsilon acylated with C16 diacid, no linker) | 0.38 | 32 |
| N{Epsilon-B28}-17-carboxyheptadecanoyl-[PheB5,LysB28],des-(B29-B30)-Insulin (ligand; Lys B28: N-epsilon acylated with C18 diacid, no linker) | 0.31 | 10 |
| N{Epsilon-B28}-17-carboxyheptadecanoyl-[TyrB5,GlyB26,LysB28],des-(B29-B30)-Insulin (ligand; Lys B28: N-epsilon acylated with C18 diacid, no linker) | 0.07 | 3 |
| N{Epsilon-B28}-17-carboxyheptadecanoyl-[TyrB5,LysB28],des-(B29-B30)-Insulin (ligand; Lys B28: N-epsilon acylated with C18 diacid, no linker) | 0.35 | 17 |
| N{Epsilon-B28}-[2-[2-[2-(17-carboxyheptadecanoylamino)ethoxy]ethoxy]acetyl]-[TyrB5,LysB28],des-(B29-B30)-Insulin (ligand; Lys B28: N-epsilon acylated with C18 diacid-OEG) | 0.48 | 31 |
| N{Epsilon-B28}-[2-[2-[2-[[(4S)-4-carboxy-4-(17-carboxyheptadecanoylamino)butanoyl]amino]ethoxy]ethoxy]acetyl]-[TyrB5,AlaB26,LysB28],des-(B29-B30)-Insulin (ligand; Lys B28: N-epsilon acylated with C18 diacid-gGlu-OEG) | 0.2 | 6 |
| N{Epsilon-B28}-[2-[2-[2-[[(4S)-4-carboxy-4-(17-carboxyheptadecanoylamino)butanoyl]amino]ethoxy]ethoxy]acetyl]-[TyrB5,GlyB26,LysB28],des-(B29-B30)-Insulin (ligand; Lys B28: N-epsilon acylated with C18 diacid-gGlu-OEG) | 0.34 | 7 |

| Substance | % maxERK/% maxAKT | Elisa hIR pY1158 max (% of human insulin) (% of human insulin) |
| --- | --- | --- |
| N{Epsilon-B28}-[2-[2-[2-[[(4S)-4-carboxy-4-(17-carboxyheptadecanoylamino)butanoyl]amino]ethoxy]ethoxy]acetyl]-[TyrB5,LysB28],des-(B29-B30)-Insulin (ligand; Lys B28: N-epsilon acylated with C18 diacid-gGlu-OEG) | 0.61 | 39 |
| N{Epsilon-B28}-[(4R)-4-[(3R,10S,13R,17R)-3-hydroxy-10,13-dimethyl-2,3,4,5,6,7,8,9,11,12,14,15,16,17-tetradecahydro-1H-cyclopenta[a]phenanthren-17-yl]pentanoyl]-[TyrB5,LysB28],des-(B29-B30)-Insulin (ligand; Lys B28: N-epsilon acylated with lithocholic acid, no linker) | 0.29 | 14 |
| N{Epsilon-B28}-[(4S)-4-carboxy-4-(15-carboxypentadecanoylamino)butanoyl]-[TyrB5,LysB28],des-(B29-B30)-Insulin (ligand; Lys B28: N-epsilon acylated with C16 diacid-gGlu) | 0.47 | 43 |
| N{Epsilon-B28}-[(4S)-4-carboxy-4-(17-carboxyheptadecanoylamino)butanoyl]-[TyrB5,LysB28],des-(B29-B30)-Insulin (ligand; Lys B28: N-epsilon acylated with C18 diacid-gGlu) | 0.37 | 19 |
| N{Epsilon-B28}-[(4S)-4-carboxy-4-[[(4R)-4-[(3R,10S,13R,17R)-3-hydroxy-10,13-dimethyl-2,3,4,5,6,7,8,9,11,12,14,15,16,17-tetradecahydro-1H-cyclopenta[a]phenanthren-17-yl]pentanoyl]amino]butanoyl]-[TyrB5,LysB28],des-(B29-B30)-Insulin (ligand; Lys B28: N-epsilon acylated with lithocholic acid-gGlu) | 0.32 | 25 |
| N{Epsilon-B28}-[(4S)-4-carboxy-4-[[(4S)-4-carboxy-4-(17-carboxyheptadecanoylamino)butanoyl]amino]butanoyl]-[TyrB5,LysB28],des-(B29-B30)-Insulin (ligand; Lys B28: N-epsilon acylated with C18 diacid-2xgGlu) | 0.45 | 36 |
| N{Epsilon-B29}-[(4S)-4-carboxy-4-(15-carboxypentadecanoylamino)butanoyl]-[TyrB5,AlaB26],des-ThrB30-Insulin (ligand; Lys B29: N-epsilon acylated with C16 diacid-gGlu) | 0.3 | 13 |
| N{Epsilon-B29}-[(4S)-4-carboxy-4-(15-carboxypentadecanoylamino)butanoyl]-[TyrB5,GlyB26],des-ThrB30-Insulin (ligand; Lys B29: N-epsilon acylated with C16 diacid-gGlu) | 0.19 | 8 |
| N{Epsilon-B29}-[(4S)-4-carboxy-4-(15-carboxypentadecanoylamino)butanoyl]-[TyrB5],des-ThrB30-Insulin (ligand; Lys B29: N-epsilon acylated with C16 diacid-gGlu) | 0.84 | 58 |
| N{Epsilon-B29}-[(4S)-4-carboxy-4-(17-carboxyheptadecanoylamino)butanoyl]-[TyrB5,AlaB26],des-ThrB30-Insulin (ligand; Lys B29: N-epsilon acylated with C18 diacid-gGlu) | 0.29 | 6 |
| N{Epsilon-B29}-[(4S)-4-carboxy-4-(17-carboxyheptadecanoylamino)butanoyl]-[TyrB5,GlyB26],des-ThrB30-Insulin (ligand; Lys B29: N-epsilon acylated with C18 diacid-gGlu) | 0.36 | 7 |
| N{Epsilon-B29}-tetradecanoyl-[TyrB5],des-ThrB30-Insulin (ligand; Lys B29: N-epsilon acylated with C14 (tetradecanoyl), no linker) | 0.66 | 40 |
| [TyrB5,AlaB26],des-ThrB30-Insulin (ligand) | 0.85 | 132 |
| [TyrB5,GlyB26],des-ThrB30-Insulin (ligand) | 0.82 | 93 |
| [TyrB5,LysB28],des-(B29-B30)-Insulin (ligand) | 0.84 | 93 |
